Key:
[1] = test system: FH-B-TPN cells; experiment: Insulin content of FH-B-TPN cells (RIA/ELISA of cell extracts); assay type: cell-based, human; settings: for Insulin content: RIA; for Fold increase (insulin content): vs CM
Procedure: FH cells were isolated and cultured as described (19), in Dulbecco's modified Eagle's medium containing 25 mM glucose and supplemented with 10% fetal bovine serum (FBS), 100 U/ml penicillin, 100 μg/ml streptomycin, 5 μM hydrocortisone, and 5 μg/ml insulin. A subclone of FH cells that was stably transduced with hTERT, designated FH-B-hTERT (FH-B), was cultured in the same medium, as described (20). FH-B cells transduced with the Pdx1 gene (see below), designated FH-B-TPN cells, were maintained in the same culture medium, with the exception of hydrocortisone and insulin (complete medium CM). For incubation in serum-free medium, the cells were placed in DMEM containing antibiotics, in the presence of 100 ng/ml insulin, 55 ng/ml transferrin, and 50 pg/ml selenium (ITS, Sigma). For all experiments activin A (Cytolab/PreproTech Asia, Rehovot, Israel) was added at a final concentration of 4 nM. except for those aimed at promoting differentiation of FH-B-TPN cells towards the beta-cell phenotype. There, addition of Act-A, as well as betacellulin (BTC, R&D Systems, Minneapolis, Minn.), nicotinamide (NA), exendin-4, and hepatocyte growth factor (HGF) (the last 3 compounds from Sigma-Aldrich) was at concentrations detailed herein below.
(§1) Insulin secretion from FH-B-TPN cells was measured by static incubation as previously described (2). Cells were plated in 24-well plates at 10^5 cells per well. The cells were preincubated for 1 hour in Krebs-Ringer buffer (KRB), followed by incubation for the indicated period of time in KRB containing 0.5 mM 1-isobutyl 3-methylxanthine (IBMX) and glucose at various concentrations. The cells were then extracted in acetic acid, and the amount of insulin in the buffer and cell extract was determined by radioimmunoassay (RIA) using the INSIK-5 kit (DiaSorin, Vercelli, Italy) according to the manufacturer. This assay has <20% crossreactivity with proinsulin. In addition, insulin content was determined using an ELISA kit (Diagnostic Systems Laboratories, Webster, Tex. or (Mercodia, Uppsala, Sweden), which recognizes only mature insulin. Insulin content was normalized to total cellular protein, measured by the Bio-Rad (Hercules, Calif.) Protein Assay kit. Human C-peptide in the cell extract was determined using a RIA kit (DiaSorin, Vercelli, Italy) or ELISA kit (Mercodia, Uppsala, Sweden) according to the manufacturers.

[2] = test system: FH-B-TPN cells; experiment: Human C-peptide in cell extract and culture medium (ELISA); assay type: cell-based; settings: SFM (6 d) then 3 nM Act-A in SFM (3 d)
Procedure: as §1

[3] = test system: FH-B-TPN cells; experiment: RT-PCR analysis of gene expression in FH-B-TPN cells; assay type: cell-based, human; settings: 4 nM activin A; FIG. 7
Procedure: Total RNA was extracted from cultured cells, mature human hepatocytes (obtained from Incara Cell Technologies, North Carolina), and human pancreatic islets (obtained through the Juvenile Diabetes Research Foundation Islet Distribution Program), using commercial kits (High Pure RNA isolation kit, Roche Molecular Biochemicals, Mannhein, Germany; Trizol Reagent, Invitrogen Life Technologies, Carlsbad, Calif.).
Specific transcripts were analyzed with Promega (Madison, Wis.) RT-PCR kit or GeneAmp Gold RNA PCR kit (Perkin Elmer Corp., Indianapolis, Ind.) or Superscript III RT-PCR (Invitrogene Life Technologies, Carlsbad, Calif.) according to the manufacturers. The absence of DNA contamination in RNA samples was confirmed with PCR primers flanking an intron. cDNA was amplified for 40 cycles (94° C. for 45 sec; annealing under conditions indicated in Table 1 below for 45 sec; 72° C. for 40 sec), using the primer pairs listed in Table 1 below.
PCR products were separated by electrophoresis in 1.5%-2.5% agarose gels and visualized by ethidium bromide staining.

[4] = test system: FH-B-TPN cells; experiment: Cell doubling time by cell counting; TUNEL assay; assay type: cell-based, human
Text: The cell doubling time, as determined by cell counting, was not affected by Act-A treatment in CM. […] No apoptotic cells were detected using a TUNEL assay under any of the conditions (data not shown).

[5] = test system: FH-B-TPN cells; experiment: Immunofluorescence analyses of protein expression in FH-B-TPN cells; assay type: cell-based, human; settings: 6 days in serum-free medium with ITS and activin A; FIG. 8
Procedure: FH-B-TPN cells plated in 6-well plates on sterilized coverslips were fixed in 4% paraformaldehyde. For cytoplasmic antigens, cells were blocked for 10 min at room temperature in 5% bovine serum albumin, 5% FBS and 0.1% Triton X-100, and stained with the antibodies as detailed in Table 2 diluted in blocking solution, for 1 hour at room temperature.
For immunostaining of nuclear antigens, cells were permeabilized in 0.25% NP40 for 10 min at room temperature prior to blocking, followed by incubation with the primary antibody as detailed in Table 2 hereinabove. The stained cells were photographed under a Zeiss confocal microscope. FH-B, Cos7 or 293T cells were used as negative controls. Nuclei were visualized with DAPI (Roche) staining for 5 minutes at room temperature. Kidney tissue was fixed in 4% paraformaldehyde, embedded in paraffin, and sectioned. Sections were rehydrated, washed in PBS, and unmasked (if needed) in Unmasking Solution (Vector Laboratories, Burlingame, Calif.) according to the manufacturer. Sections were blocked for 2 h in 0.2% Tween 20 and 0.2% gelatin, incubated overnight at 4° C. with primary antibodies and 2 h at room temperature with the secondary antibodies as detailed in Table 2 hereinabove, stained with DAPI, and mounted. BrdU staining was performed as previously described (28b).

[6] = FH-B-TPN cells, 4 nM in CM (6 d)
[7] = SFM (6 d) then 3 nM Act-A in SFM (3 d)

B1: betacellulin (protein, UniProt P35070 32-111, looked up)
Betacellulin: DGNSTRSPETNGLLCGDPEENCAATTTQSKRKGHFSRCPKQYKHYCIKGRCRFVVAEQTPSCVCDEGYIGARCERVDLFY
notes: betacellulin (R&D Systems), soluble factor
- Insulin content [1, 6]: 264 ± 7 ng/10^6 cells
- Fold increase (insulin content) [1, 6]: 1.4

B2: activin A (protein, UniProt P08476 311-426, looked up)
Inhibin beta A chain: GLECDGKVNICCKKQFFVSFKDIGWNDWIIAPSGYHANYCEGECPSHIAGTSGSSLSFHSTVINHYRMRGHSPFANLKSCCVPTKLRPMSMLYYDDGQNIIKKDIQNMIVEECGCS
- Human C-peptide secreted into the culture medium [2]: 43.5±1.3 ng/10^6 cells
- Human C-peptide levels in cells ([2]; ELISA): 5153±180 ng/10^6 cells
- Glucagon mRNA [3]: disappeared after an overnight treatment
- PAX4 and GLUT2 mRNAs [3]: appeared following 3 days of treatment
- Cell doubling time compared with cells growing in CM [4]: not affected
- PP staining [5]: disappeared
- Percent of cells stained for GK, PC1/3, and PC2 [5]: increase
- Percent of cells stained for NGN3 [5]: significant decrease
- Percentage of cells stained for ISL1, NKX6.1, and NKX2.2 [5]: significant increase
- Insulin content compared with serum-free medium without activin A ([1]; 6 days in serum-free medium supplemented with both ITS and activin A): further doubling
- Insulin content [1, 6]: 729 ± 55 ng/10^6 cells
- Insulin content ([1]; FH-B-TPN cells, Act-A 3 nM in CM (3 d) + CM (6 d), mean ± SD (n = 3)): 1661 ± 319 ng/10^6 cells
- Fold increase (insulin content) ([1]; FH-B-TPN cells, Act-A 3 nM in CM (3 d) + CM (6 d)): 8.8
- Insulin content ([1]; FH-B-TPN cells, Act-A 3 nM in CM (3 d) + SFM (6 d), mean ± SD (n = 3)): 1493 ± 229 ng/10^6 cells
- Fold increase (insulin content) ([1]; FH-B-TPN cells, Act-A 3 nM in CM (3 d) + SFM (6 d)): 7.9
- Insulin content ([1]; FH-B-TPN cells, Act-A 3 nM in CM (3 d), mean ± SD (n = 3)): 1399 ± 269 ng/10^6 cells
- Fold increase (insulin content) ([1]; FH-B-TPN cells, Act-A 3 nM in CM (3 d)): 7.4
- Insulin content ([1]; FH-B-TPN cells, Act-A 3 nM in SFM (3 d), mean ± SD (n = 3)): 2143 ± 179 ng/10^6 cells
- Fold increase (insulin content) ([1]; FH-B-TPN cells, Act-A 3 nM in SFM (3 d)): 11.4
- Concentration giving maximal (optimal) increase in insulin content ([1]; FH-B-TPN cells, Act-A 1-8 nM in regular medium (CM) for 6 days, FIG. 9): 3 nM
- Fold increase (insulin content) ([1]; FH-B-TPN cells, SFM (6 d) + Act-A 3 nM in SFM (3 d)): 33
- Increase over insulin content of cells incubated 9 days in SFM without Act-A [1, 7]: 2.6 fold
- Insulin content as share of the cellular protein content [1, 7]: 6%
- Insulin content relative to normal human pancreatic islets [1, 7]: about 60%
- Share of stored insulin in the form of mature protein (ELISA vs RIA) [1, 7]: 95%
